Usually Kd stands for the equilibrium constant for the complex coming apart. By IC50 is commonly meant the concentration needed to halve the response being measured.

The values that follow come from US9926369B2, “Methods for treating hepatocellular cancer by administering an anti-Ang-2 antibody” (Regeneron Pharmaceuticals, Inc., priority 2009, dated 2018).

One assay has as its target T1, hAng-2FD-mFc N-467-G (Homo sapiens, UniProt O15123, N467G).
T1 construct: made in house
Kind of assay: Ang-2FD-mFc point mutant binding experiment (SPR), N-467-G. The note with it: N-467-G mutant captured; antibody/peptibody at 100 nM; 25° C. An excerpt:
To further characterize binding between hAng2 and anti-hAng2 mAbs of the invention, seven variant hAng2-FD-mFc proteins were generated, each containing a single point mutation. Amino acids selected for mutation were based on the difference in sequence between hAng-2 and hAng-1 in the region that interacts with hTie-2 (FIG. 1). In particular, amino acids within the fibrinogen-like domain (FD) of Ang-2 which are believed to interact with Tie-2 based on crystal structure analysis, but which differ from the corresponding amino acid in Ang-1, were individually mutated to the corresponding hAng-1 residue. The results of this example indicate the amino acid residues of hAng-2 with which the Ang-2 preferential binding antibodies interact.
In this experiment, each of the seven hAng-2FD-mFc mutant proteins were captured (˜147-283 RU) on an anti-mouse-Fc surface created through direct chemical coupling to a BIACORE™ chip. Then each Ang-2 antibody (or peptibody, as the case may be) at 100 nM was injected over the captured mFc-tagged hAng-2FD protein surface at a flowrate of 50 μl/min for 180 sec, and the dissociation of variant hAng2-FD-mFc and antibody was monitored in real time for 20 min at 25° C.

A further assay deals with Dimeric Monkey Ang-2FD. In words: Surface plasmon resonance binding to dimeric monkey Ang-2FD conjugated to human IgG1. Also noted: species or system Macca fascicularis. The note with it: SPR, room temperature. On the procedure: Equilibrium dissociation constants (KD values) for the binding of selected purified Ang-2 antibodies to dimeric fibrinogen-like domain of human (SEQ ID NO: 519), mouse (Mus musculus; SEQ ID NO: 520) and monkey (Macca fascicularis; SEQ ID NO: 521) Ang-2 (Ang-2FD) conjugated to human IgG1 (SEQ ID NO:528) were determined by surface kinetics using a real-time biosensor surface plasmon resonance assay. Antibody was captured on a goat anti-mouse IgG polyclonal antibody surface, a goat anti-human κ polyclonal antibody (Southern Biotech, Birmingham, Ala.) surface or a goat anti-human IgG polyclonal antibody (Jackson Immuno Research Lab, West Grove, Pa.) surface created through direct amine coupling to a BIACORE™ CM5 sensor chip to form a captured antibody surface. Varying concentrations (ranging from 50 nM to 6.25 nM) of protein were injected at 100 μl/min over captured antibody surface for 90 seconds. Antigen-antibody binding and dissociation were monitored in real time at room temperature. Kinetic analysis was performed to calculate KD and half-life of antigen/antibody complex dissociation.
The above experiment was repeated using selected purified anti-Ang-2 antibodies cloned onto human IgG1.

In assay [1] the target is T2, hAng-1 WT binding to Tie-2 (Homo sapiens, UniProt Q15389).
T2 construct: Full-length human Ang-2 or Ang-1 protein conjugated to 6× histidine tag (R&D Systems, Minneapolis, Minn.); purchased R&D Systems
T2 sequence (Q15389 20-498 limits assumed): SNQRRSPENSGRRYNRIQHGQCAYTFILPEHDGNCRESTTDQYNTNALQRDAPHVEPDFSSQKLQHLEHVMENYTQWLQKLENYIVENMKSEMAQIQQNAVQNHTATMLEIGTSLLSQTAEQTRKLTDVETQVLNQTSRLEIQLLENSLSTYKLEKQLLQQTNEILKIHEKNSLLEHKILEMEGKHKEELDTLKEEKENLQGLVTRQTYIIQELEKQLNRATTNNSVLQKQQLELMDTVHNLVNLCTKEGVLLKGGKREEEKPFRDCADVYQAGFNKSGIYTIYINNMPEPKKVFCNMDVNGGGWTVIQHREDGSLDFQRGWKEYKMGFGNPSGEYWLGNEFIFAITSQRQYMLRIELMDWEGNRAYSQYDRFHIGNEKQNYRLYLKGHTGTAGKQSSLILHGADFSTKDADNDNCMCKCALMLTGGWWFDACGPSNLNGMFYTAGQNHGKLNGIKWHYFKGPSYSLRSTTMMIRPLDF
Kind of assay: ELISA blocking of full-length hAng-1 WT binding to hTie-2-mFc. The assay is classed as biochemical. Particulars: 0.6 nM hAng-1-His. On the procedure: The ELISA experiments shown in this Example were conducted in a similar manner to the experiments of Example 5. Briefly, hTie-2-mFc (a chimeric construct consisting of human Tie-2 conjugated to mouse IgG; SEQ ID NO:525) was coated onto 96-well plates at a concentration of 2 μg/ml and incubated overnight followed by washing four times in wash buffer (PBS with 0.05% Tween-20). The plate was then blocked with PBS (Irvine Scientific, Santa Ana, Calif.) containing 0.5% BSA (Sigma-Aldrich Corp., St. Louis, Mo.) for one hour at room temperature. In a separate plate, purified anti-Ang-2 antibodies and control constructs, at a starting concentration of 300 nM, were serially diluted by a factor of three across the plate. Full-length human Ang-2 or Ang-1 protein conjugated to 6× histidine tag (R&D Systems, Minneapolis, Minn.) were added to a final concentration of 0.6 nM and incubated for one hour at room temperature. The antibody/antigen mixture was then added to the plate containing hTie-2-mFc and incubated for one hour at room temperature. Detection of Ang-2-His or Ang-1-His bound to hTie-2-mFc protein was determined with Horse-Radish Peroxidase (HRP) conjugated to a-Penta-His antibody (Qiagen, Valencia, Calif.) and developed by standard colorimetric response using tetramethylbenzidine (TMB) substrate (BD Biosciences, San Jose, Calif.). Absorbance was read at OD450 for 0.1 sec. […]
(In general: In an ELISA, binding on a coated surface is turned into a signal by an enzyme label.)

T1 sequence (O15123 with tags, fused parts or gaps N467G): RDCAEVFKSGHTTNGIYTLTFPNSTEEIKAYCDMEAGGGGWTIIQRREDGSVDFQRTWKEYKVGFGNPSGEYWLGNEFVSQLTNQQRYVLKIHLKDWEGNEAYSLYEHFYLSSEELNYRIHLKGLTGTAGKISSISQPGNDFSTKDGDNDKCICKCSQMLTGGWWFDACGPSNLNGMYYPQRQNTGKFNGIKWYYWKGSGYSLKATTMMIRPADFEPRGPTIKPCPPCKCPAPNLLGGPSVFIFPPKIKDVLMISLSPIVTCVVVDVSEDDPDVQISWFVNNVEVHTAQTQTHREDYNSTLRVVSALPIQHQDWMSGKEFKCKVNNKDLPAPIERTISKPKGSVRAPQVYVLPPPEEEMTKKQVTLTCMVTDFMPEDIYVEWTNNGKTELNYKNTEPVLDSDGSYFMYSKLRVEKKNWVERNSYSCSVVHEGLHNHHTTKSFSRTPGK
Dimeric Monkey Ang-2FD, sequence (as listed by the source): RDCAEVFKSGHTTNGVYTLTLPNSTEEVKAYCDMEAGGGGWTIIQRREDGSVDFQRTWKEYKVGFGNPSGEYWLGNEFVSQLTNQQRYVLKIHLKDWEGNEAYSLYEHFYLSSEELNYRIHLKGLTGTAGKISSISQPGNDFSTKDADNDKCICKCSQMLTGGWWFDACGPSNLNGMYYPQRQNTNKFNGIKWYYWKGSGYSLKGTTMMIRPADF

On to “H1H685P: human anti-Ang-2 antibody, HCVR/LCVR SEQ ID NOs 18/20; also referred to as mAb1 [Antibody H1H685P]”, for which the Kd worked out at 9.38 pM with hAng-2FD-mFc N-467-G and 99.4 pM at Dimeric Monkey Ang-2FD. In the assay with hAng-2FD-mFc N-467-G, this substance showed an RU of 152.25 RU. Besides, the IC50 in assay [1] is more than 300000 pM.
